Test results published in paper PMC4761948 (2016).

Target: T1, GST-GCM1 (Homo sapiens (Human), UniProt Q9NP62)
T1 chain: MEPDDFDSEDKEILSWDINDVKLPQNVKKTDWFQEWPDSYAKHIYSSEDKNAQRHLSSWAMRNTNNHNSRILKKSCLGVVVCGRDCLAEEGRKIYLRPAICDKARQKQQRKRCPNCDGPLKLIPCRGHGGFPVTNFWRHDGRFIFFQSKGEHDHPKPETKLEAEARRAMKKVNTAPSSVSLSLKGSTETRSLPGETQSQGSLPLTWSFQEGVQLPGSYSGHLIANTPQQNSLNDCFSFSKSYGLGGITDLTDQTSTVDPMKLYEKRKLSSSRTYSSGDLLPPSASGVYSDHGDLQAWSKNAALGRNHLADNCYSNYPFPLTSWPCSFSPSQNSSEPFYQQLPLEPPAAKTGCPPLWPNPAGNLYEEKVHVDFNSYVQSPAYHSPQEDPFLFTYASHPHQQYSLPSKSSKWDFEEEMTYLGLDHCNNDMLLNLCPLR
Assay: GST pull-down

binding result: binds
B1: GATA3-FLAG (protein)
chain: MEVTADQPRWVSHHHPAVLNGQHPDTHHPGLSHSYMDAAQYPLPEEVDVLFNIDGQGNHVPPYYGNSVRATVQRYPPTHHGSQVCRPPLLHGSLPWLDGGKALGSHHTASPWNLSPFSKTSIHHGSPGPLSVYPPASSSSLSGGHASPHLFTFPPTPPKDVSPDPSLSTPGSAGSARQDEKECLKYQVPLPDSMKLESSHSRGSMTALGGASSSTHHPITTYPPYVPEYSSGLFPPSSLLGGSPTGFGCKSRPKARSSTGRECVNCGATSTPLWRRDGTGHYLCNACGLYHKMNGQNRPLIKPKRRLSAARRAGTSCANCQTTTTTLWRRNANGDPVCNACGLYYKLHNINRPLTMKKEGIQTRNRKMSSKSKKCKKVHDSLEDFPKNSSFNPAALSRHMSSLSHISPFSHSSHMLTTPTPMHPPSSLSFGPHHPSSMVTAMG
